The supplement of paper PMC9112550, “Optimization of the antimicrobial peptide Bac7 by deep mutational scanning” (BMC Biology, 2022)

Test system: Escherichia coli TOP10
Assay: shrunken log2 fold change of peptide-encoding DNA abundance (4.5 h post-induction vs induction); higher = less antimicrobial activity (less host growth inhibition)
Conditions: time post-induction: 4.5 h; library: site-saturation at positions 5, 18, 19, 20
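Also: peptides expressed intracellularly from a pBAD plasmid library in pooled LB shake-flask culture, induced with 0.3% L-arabinose, DNA abundance read by NGS, three biological replicates, DESeq2 with apeglm shrinkage.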

Sequence | shrunken log2 fold change
RRIRVRPPRLPRPRPRPQLEPRP | 0.144
RRIRSRPPRLPRPRPRPYICPRP | -0.959
RRIRCRPPRLPRPRPRPFIRPRP | -0.249
RRIRDRPPRLPRPRPRPCMAPRP | 0.203
RRIRQRPPRLPRPRPRPRFNPRP | -0.244
RRIRRRPPRLPRPRPRPGSVPRP | 0.299
RRIRSRPPRLPRPRPRPWCYPRP | -0.263
RRIRGRPPRLPRPRPRPRCYPRP | 0.555
RRIRTRPPRLPRPRPRPAVNPRP | 0.000461
RRIRLRPPRLPRPRPRPVDPPRP | -0.0136
RRIRCRPPRLPRPRPRPCLSPRP | -0.381
RRIRGRPPRLPRPRPRPGNPPRP | 0.134
RRIRRRPPRLPRPRPRPVCFPRP | 0.383
RRIRRRPPRLPRPRPRPVFGPRP | 0.329
RRIRSRPPRLPRPRPRPLDFPRP | -0.223
RRIRDRPPRLPRPRPRPIYPPRP | -1.42
RRIRCRPPRLPRPRPRPVAMPRP | -0.125
RRIRMRPPRLPRPRPRPISWPRP | 0.109
RRIRRRPPRLPRPRPRPLYEPRP | -0.0905
RRIRIRPPRLPRPRPRPQFHPRP | -1.12
RRIRKRPPRLPRPRPRPSLRPRP | -0.278
RRIRTRPPRLPRPRPRPHTCPRP | -0.0347
RRIRDRPPRLPRPRPRPMTIPRP | 0.0371
RRIRHRPPRLPRPRPRPYLGPRP | -0.403
RRIRVRPPRLPRPRPRPKADPRP | 0.0681

Sequence | shrunken log2 fold change
RRIRRRPPRLPRPRPRPMEHPRP | 0.131
RRIRPRPPRLPRPRPRPCECPRP | -0.014
RRIRFRPPRLPRPRPRPLGQPRP | -0.187
RRIRGRPPRLPRPRPRPCYSPRP | -0.0391
RRIRVRPPRLPRPRPRPWHCPRP | -0.0339
RRIRWRPPRLPRPRPRPRLKPRP | 0.689
RRIRRRPPRLPRPRPRPSVMPRP | 0.157
RRIRSRPPRLPRPRPRPNVFPRP | -0.075
RRIRPRPPRLPRPRPRPDDAPRP | -0.0674
RRIRYRPPRLPRPRPRPEEDPRP | -0.0024
RRIRARPPRLPRPRPRPVGNPRP | 0.0787
RRIRNRPPRLPRPRPRPNAMPRP | 0.0458
RRIRCRPPRLPRPRPRPHTNPRP | -0.564
RRIRGRPPRLPRPRPRPCRNPRP | 0.0316
RRIRSRPPRLPRPRPRPHCAPRP | -0.0311
RRIRGRPPRLPRPRPRPRGQPRP | 0.803
RRIRTRPPRLPRPRPRPVKIPRP | -1.21
RRIRYRPPRLPRPRPRPPNRPRP | -0.0643
RRIRTRPPRLPRPRPRPKNWPRP | 0.183
RRIRNRPPRLPRPRPRPPHDPRP | 0.114
RRIRHRPPRLPRPRPRPPHLPRP | 0.0576
RRIRERPPRLPRPRPRPMVPPRP | -0.103
RRIRDRPPRLPRPRPRPPSQPRP | 0.113
RRIRTRPPRLPRPRPRPGINPRP | -0.324
RRIRQRPPRLPRPRPRPLHSPRP | -0.295

Sequence | shrunken log2 fold change
RRIRLRPPRLPRPRPRPADMPRP | -0.445
RRIRCRPPRLPRPRPRPYWPPRP | -0.158
RRIRRRPPRLPRPRPRPVVQPRP | 0.534
RRIRERPPRLPRPRPRPWANPRP | -0.0497
RRIRLRPPRLPRPRPRPNGQPRP | 0.00827
RRIRNRPPRLPRPRPRPYGIPRP | -0.00992
RRIRTRPPRLPRPRPRPFLCPRP | -0.978
RRIRHRPPRLPRPRPRPMDAPRP | 0.00875
RRIRPRPPRLPRPRPRPICIPRP | -0.158
RRIRCRPPRLPRPRPRPQNGPRP | 0.0924
RRIRLRPPRLPRPRPRPDDIPRP | -0.0521
RRIRMRPPRLPRPRPRPAPNPRP | 1.07
RRIRYRPPRLPRPRPRPQWTPRP | -0.0155
RRIRFRPPRLPRPRPRPMIFPRP | -0.364
RRIRKRPPRLPRPRPRPPHKPRP | 0.835
RRIRIRPPRLPRPRPRPFQHPRP | -0.214
RRIRERPPRLPRPRPRPPLHPRP | -0.0595
RRIRCRPPRLPRPRPRPLGVPRP | 0.0123
RRIRPRPPRLPRPRPRPPPVPRP | 0.744
RRIRDRPPRLPRPRPRPVVAPRP | 0.725
RRIRRRPPRLPRPRPRPGQFPRP | 0.0178
RRIRQRPPRLPRPRPRPQMHPRP | -0.168
RRIRCRPPRLPRPRPRPYPIPRP | -0.198
RRIRVRPPRLPRPRPRPACVPRP | -0.0412
RRIRFRPPRLPRPRPRPQEKPRP | -0.0525

Sequence | shrunken log2 fold change
RRIRKRPPRLPRPRPRPCIHPRP | -0.124
RRIRGRPPRLPRPRPRPPCLPRP | 0.503
RRIRRRPPRLPRPRPRPFVWPRP | -0.218
RRIRDRPPRLPRPRPRPQDTPRP | -0.366
RRIRWRPPRLPRPRPRPYKQPRP | -0.0587
RRIRERPPRLPRPRPRPRSYPRP | -0.0497
RRIRGRPPRLPRPRPRPEGIPRP | -0.0235
RRIRNRPPRLPRPRPRPCMWPRP | -0.0288
RRIRSRPPRLPRPRPRPGWPPRP | 0.692
RRIRPRPPRLPRPRPRPYWSPRP | -0.324
RRIRNRPPRLPRPRPRPTECPRP | -0.0689
RRIRHRPPRLPRPRPRPMFSPRP | -0.256
RRIRYRPPRLPRPRPRPVTIPRP | -0.0242
RRIRNRPPRLPRPRPRPEGNPRP | -0.0214
RRIRDRPPRLPRPRPRPLEGPRP | 0.0257
RRIRTRPPRLPRPRPRPTHGPRP | 0.0213
RRIRHRPPRLPRPRPRPMTVPRP | 0.055
RRIRYRPPRLPRPRPRPIHNPRP | -0.438
RRIRVRPPRLPRPRPRPEYVPRP | -0.153
RRIRNRPPRLPRPRPRPRDQPRP | -0.0345
RRIRYRPPRLPRPRPRPDNAPRP | -0.0635
RRIRARPPRLPRPRPRPVWMPRP | 0.0552
RRIRLRPPRLPRPRPRPQQSPRP | -0.047
RRIRGRPPRLPRPRPRPDMVPRP | -0.0595
RRIRPRPPRLPRPRPRPHKKPRP | 0.165

Sequence | shrunken log2 fold change
RRIRIRPPRLPRPRPRPMGVPRP | -0.0148
RRIRGRPPRLPRPRPRPKSDPRP | 0.584
RRIRHRPPRLPRPRPRPAPFPRP | -0.257
RRIRQRPPRLPRPRPRPASMPRP | -0.39
RRIRIRPPRLPRPRPRPGPTPRP | 0.175
RRIRERPPRLPRPRPRPAWPPRP | 0.359
RRIRWRPPRLPRPRPRPCHGPRP | 0.0694
RRIRTRPPRLPRPRPRPHSPPRP | -0.278
RRIRNRPPRLPRPRPRPPVIPRP | -0.00994
RRIRYRPPRLPRPRPRPFHCPRP | -0.0983
RRIRMRPPRLPRPRPRPHNPPRP | -0.329
RRIRARPPRLPRPRPRPAWCPRP | 1.28
RRIRWRPPRLPRPRPRPTYAPRP | -0.0208
RRIRTRPPRLPRPRPRPQYDPRP | -0.0819
RRIRPRPPRLPRPRPRPSEVPRP | -0.079
RRIRGRPPRLPRPRPRPQPTPRP | 1.02
RRIRCRPPRLPRPRPRPELNPRP | -0.137
RRIRRRPPRLPRPRPRPTKGPRP | 0.244
RRIRMRPPRLPRPRPRPKITPRP | 0.19
RRIRGRPPRLPRPRPRPCIWPRP | 0.208
RRIRNRPPRLPRPRPRPSPNPRP | -0.552
RRIRQRPPRLPRPRPRPLIIPRP | -0.781
RRIRRRPPRLPRPRPRPCRLPRP | 0.144
RRIRVRPPRLPRPRPRPIVWPRP | -0.328
RRIRNRPPRLPRPRPRPKGIPRP | 0.0346
